This test deals with T1, recombinant human Trop-2-his protein (ACCESSION NO.: NP_002344.2, AA 1-274) (human, UniProt P09758 27-274).
T1 construct: range 27-274; also called recombinant human Trop-2 protein; recombinant human Trop-2 extracellular domain; not shown: his tag
T1 sequence (looked up): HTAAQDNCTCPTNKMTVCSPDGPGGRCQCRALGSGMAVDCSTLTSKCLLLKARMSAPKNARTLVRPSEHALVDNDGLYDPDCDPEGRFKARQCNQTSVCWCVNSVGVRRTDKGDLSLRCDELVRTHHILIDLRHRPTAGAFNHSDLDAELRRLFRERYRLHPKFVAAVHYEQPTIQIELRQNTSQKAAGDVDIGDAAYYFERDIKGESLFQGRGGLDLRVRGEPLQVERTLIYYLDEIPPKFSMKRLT
Kind of test: ELISA, coated Trop-2-his 0.2 µg/ml. On the procedure:
Plates were coated with recombinant human Trop-2-his protein (ACCESSION NO.: NP_002344.2, AA 1-274) at a concentration of 0.2 μg/ml overnight at 4° C. and then blocked with 5% BSA for 60 min in a constant temperature incubator at 37° C. Chimeric antibodies ch3-11, ch4-3, ch17-1, ch11-4, and ch23-12 and control antibody Sacituzumab (serial dilutions of 8 concentrations in total obtained through 3-fold serially diluting a solution with an initial concentration of 2 μg/ml) were added into the plates which were then incubated in a constant temperature incubator at 37° C. for 60 min. The plates were washed with PBST 4 times, and 1:5000 dilution of HRP-anti-human Fc (Cat.: 109-035-098, Jackson ImmunoResearch) was added into the plates for reaction for 45 min. TMB (Cat.: ME142, GalaxyBio, Beijing) substrate was added for color development for 15 min, and then 2M HCl was added to stop reaction. Absorbances at 450 nm and at 630 nm (as reference wavelength) were read, and A450 nm-630 nm values of the wells in the plates were recorded.

One molecule from US20240092930A1 (MABWELL SHANGHAI BIOSCIENCE, published 2024) can be followed below.

B1: Sacituzumab (antibody, human IgG1, kappa, V domains shown)
VH: QVQLQQSGSELKKPGASVKVSCKASGYTFTNYGMNWVKQAPGQGLKWMGWINTYTGEPTYTDDFKGRFAFSLDTSVSTAYLQISSLKADDTAVYFCARGGFGSSYWYFDVWGQGSLVTVSS
VL: DIQLTQSPSSLSASVGDRVSITCKASQDVSIAVAWYQQKPGKAPKLLIYSASYRYTGVPDRFSGSGSGTDFTLTISSLQPEDFAVYYCQQHYITPLTFGAGTKVEIKR
notes: expressed in HEK293; also called control antibody Sacituzumab; Saituzumab
For the molecule B1, the 50% effective concentration (EC50) was found to be 0.271 nM.

The term EC50 denotes the concentration at which the effect is half-maximal.
